Assay results reported in patent US20250026846A1 (JCR PHARMACEUTICALS, published 2025).

T1: recombinant monkey TfR (r monkey TfR: Sino Biological Inc.), crab-eating monkey TfR extracellular region with … (crab-eating monkey (Macaca fascicularis))
T1 construct: Bought from Sino Biological; also called r monkey TfR-ECD (Histag); not shown: histidine tag at the N-terminus
T1 chain: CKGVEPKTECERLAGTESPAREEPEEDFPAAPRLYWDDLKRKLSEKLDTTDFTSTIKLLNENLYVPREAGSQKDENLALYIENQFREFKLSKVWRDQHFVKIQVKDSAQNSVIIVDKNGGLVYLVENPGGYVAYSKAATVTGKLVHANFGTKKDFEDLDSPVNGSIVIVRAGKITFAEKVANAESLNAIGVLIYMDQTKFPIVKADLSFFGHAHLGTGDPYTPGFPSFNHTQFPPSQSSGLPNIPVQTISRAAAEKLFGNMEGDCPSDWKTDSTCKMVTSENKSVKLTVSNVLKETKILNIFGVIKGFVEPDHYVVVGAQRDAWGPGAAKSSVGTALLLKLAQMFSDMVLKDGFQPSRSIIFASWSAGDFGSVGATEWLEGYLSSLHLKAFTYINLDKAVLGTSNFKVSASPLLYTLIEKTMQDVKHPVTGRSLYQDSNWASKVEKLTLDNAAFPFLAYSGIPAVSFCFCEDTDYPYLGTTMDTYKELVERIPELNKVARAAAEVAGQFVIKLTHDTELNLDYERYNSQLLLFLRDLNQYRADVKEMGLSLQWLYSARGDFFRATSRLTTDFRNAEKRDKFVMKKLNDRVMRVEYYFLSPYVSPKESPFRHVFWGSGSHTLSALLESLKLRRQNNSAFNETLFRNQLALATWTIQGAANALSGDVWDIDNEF

B1: Fab GS3-IDUA (other)
light: DIVMTQTPLSLSVTPGQPASISCRSSQSLVHSNGNTYLHWYLQKPGQSPQLLIYKVSNRFSGVPDRFSGSGSGTDFTLKISRVEAEDVGVYYCSQSTHVPWTFGQGTKVEIKRTVAAPSVFIFPPSDEQLKSGTASVVCLLNNFYPREAKVQWKVDNALQSGNSQESVTEQDSKDSTYSLSSTLTLSKADYEKHKVYACEVTHQGLSSPVTKSFNRGEC
heavy: EVQLVQSGAEVKKPGESLKISCKGSGYSFMNYWLGWVRQMPGKGLEWMGDIYPGGDYPTYSEKFKVQVTISADKSISTAYLQLSSLKASDTAMYYCARSGNYDEVAYWGQGTLVTVSSASTKGPSVFPLAPSSKSTSGGTAALGCLVKDYFPEPVTVSWNSGALTSGVHTFPAVLQSSGLYSLSSVVTVPSSSLGTQTYICNVNHKPSNTKVDKKVEPKSCDKTHTGGGGSGGGGSGGGGSAEAPHLVHVDAARALWPLRRFWRSTGFCPPLPHSQADQYVLSWDQQLNLAYVGAVPHRGIKQVRTHWLLELVTTRGSTGRGLSYNFTHLDGYLDLLRENQLLPGFELMGSASGHFTDFEDKQQVFEWKDLVSSLARRYIGRYGLAHVSKWNFETWNEPDHHDFDNVSMTMQGFLNYYDACSEGLRAASPALRLGGPGDSFHTPPRSPLSWGLLRHCHDGTNFFTGEAGVRLDYISLHRKGARSSISILEQEKVVAQQIRQLFPKFADTPIYNDEADPLVGWSLPQPWRADVTYAAMVVKVIAQHQNLLLANTTSAFPYALLSNDNAFLSYHPHPFAQRTLTARFQVNNTRPPHVQLLRKPVLTAMGLLALLDEEQLWAEVSQAGTVLDSNHTVGVLASAHRPQGPADAWRAAVLIYASDDTRAHPNRSVAVTLRLRGVPPGPGLVYVTRYLDNGLCSPDGEWRRLGRPVFPTAEQFRRMRAAEDPVAAAPRPLPAGGRLTLRPALRLPSLLLVHVCARPEKPPGQVTRLRALPLTQGQLVLVWSDEHVGSKCLWTYEIQFSQDGKAYTPVSRKPSTFNLFVFSPDTGAVSGSYRVRALDYWARPGPFSDPVPYLEVPVPRGPPSPGNP
notes: also called Fab HC-GS3-IDUA
B2: Fab GS3-ASM (other)
light: B1 light
heavy: EVQLVQSGAEVKKPGESLKISCKGSGYSFMNYWLGWVRQMPGKGLEWMGDIYPGGDYPTYSEKFKVQVTISADKSISTAYLQLSSLKASDTAMYYCARSGNYDEVAYWGQGTLVTVSSASTKGPSVFPLAPSSKSTSGGTAALGCLVKDYFPEPVTVSWNSGALTSGVHTFPAVLQSSGLYSLSSVVTVPSSSLGTQTYICNVNHKPSNTKVDKKVEPKSCDKTHTGGGGSGGGGSGGGGSLSDSRVLWAPAEAHPLSPQGHPARLHRIVPRLRDVFGWGNLTCPICKGLFTAINLGLKKEPNVARVGSVAIKLCNLLKIAPPAVCQSIVHLFEDDMVEVWRRSVLSPSEACGLLLGSTCGHWDIFSSWNISLPTVPKPPPKPPSPPAPGAPVSRILFLTDLHWDHDYLEGTDPDCADPLCCRRGSGLPPASRPGAGYWGEYSKCDLPLRTLESLLSGLGPAGPFDMVYWTGDIPAHDVWHQTRQDQLRALTTVTALVRKFLGPVPVYPAVGNHESTPVNSFPPPFIEGNHSSRWLYEAMAKAWEPWLPAEALRTLRIGGFYALSPYPGLRLISLNMNFCSRENFWLLINSTDPAGQLQWLVGELQAAEDRGDKVHIIGHIPPGHCLKSWSWNYYRIVARYENTLAAQFFGHTHVDEFEVFYDEETLSRPLAVAFLAPSATTYIGLNPGYRVYQIDGNYSGSSHVVLDHETYILNLTQANIPGAIPHWQLLYRARETYGLPNTLPTAWHNLVYRMRGDMQLFQTFWFLYHKGHPPSEPCGTPCRLATLCAQLSARADSPALCRHLMPDGSLPEAQSLWPRPLFC
notes: also called Fab HC-GS3-ASM
B3: Fab GS3-SGSH (other)
light: B1 light
heavy: EVQLVQSGAEVKKPGESLKISCKGSGYSFMNYWLGWVRQMPGKGLEWMGDIYPGGDYPTYSEKFKVQVTISADKSISTAYLQLSSLKASDTAMYYCARSGNYDEVAYWGQGTLVTVSSASTKGPSVFPLAPSSKSTSGGTAALGCLVKDYFPEPVTVSWNSGALTSGVHTFPAVLQSSGLYSLSSVVTVPSSSLGTQTYICNVNHKPSNTKVDKKVEPKSCDKTHTGGGGSGGGGSGGGGSRPRNALLLLADDGGFESGAYNNSAIATPHLDALARRSLLFRNAFTSVSSCSPSRASLLTGLPQHQNGMYGLHQDVHHFNSFDKVRSLPLLLSQAGVRTGIIGKKHVGPETVYPFDFAYTEENGSVLQVGRNITRIKLLVRKFLQTQDDRPFFLYVAFHDPHRCGHSQPQYGTFCEKFGNGESGMGRIPDWTPQAYDPLDVLVPYFVPNTPAARADLAAQYTTVGRMDQGVGLVLQELRDAGVLNDTLVIFTSDNGIPFPSGRTNLYWPGTAEPLLVSSPEHPKRWGQVSEAYVSLLDLTPTILDWFSIPYPSYAIFGSKTIHLTGRSLLPALEAEPLWATVFGSQSHHEVTMSYPMRSVQHRHFRLVHNLNFKMPFPIDQDFYVSPTFQDLLNRTTAGQPTGWYKDLRHYYYRARWELYDRSRDPHETQNLATDPRFAQLLEMLRDQLAKWQWETHDPWVCAPDGVLEEKLSPQCQPLHNEL
notes: also called Fab HC-GS3-SGSH
B4: Fab GS3-PPT1 (other)
light: B1 light
heavy: EVQLVQSGAEVKKPGESLKISCKGSGYSFMNYWLGWVRQMPGKGLEWMGDIYPGGDYPTYSEKFKVQVTISADKSISTAYLQLSSLKASDTAMYYCARSGNYDEVAYWGQGTLVTVSSASTKGPSVFPLAPSSKSTSGGTAALGCLVKDYFPEPVTVSWNSGALTSGVHTFPAVLQSSGLYSLSSVVTVPSSSLGTQTYICNVNHKPSNTKVDKKVEPKSCDKTHTGGGGSGGGGSGGGGSDPPAPLPLVIWHGMGDSCCNPLSMGAIKKMVEKKIPGIYVLSLEIGKTLMEDVENSFFLNVNSQVTTVCQALAKDPKLQQGYNAMGFSQGGQFLRAVAQRCPSPPMINLISVGGQHQGVFGLPRCPGESSHICDFIRKTLNAGAYSKVVQERLVQAEYWHDPIKEDVYRNHSIFLADINQERGINESYKKNLMALKKFVMVKFLNDSIVDPVDSEWFGFYRSGQAKETIPLQETSLYTQDRLGLKEMDNAGQLVFLATEGDHLQLSEEWFYAHIIPFLG
notes: also called Fab HC-GS3-PPT1
B5: Fab GS3-ARSA (other)
light: B1 light
heavy: EVQLVQSGAEVKKPGESLKISCKGSGYSFMNYWLGWVRQMPGKGLEWMGDIYPGGDYPTYSEKFKVQVTISADKSISTAYLQLSSLKASDTAMYYCARSGNYDEVAYWGQGTLVTVSSASTKGPSVFPLAPSSKSTSGGTAALGCLVKDYFPEPVTVSWNSGALTSGVHTFPAVLQSSGLYSLSSVVTVPSSSLGTQTYICNVNHKPSNTKVDKKVEPKSCDKTHTGGGGSGGGGSGGGGSRPPNIVLIFADDLGYGDLGCYGHPSSTTPNLDQLAAGGLRFTDFYVPVSLCTPSRAALLTGRLPVRMGMYPGVLVPSSRGGLPLEEVTVAEVLAARGYLTGMAGKWHLGVGPEGAFLPPHQGFHRFLGIPYSHDQGPCQNLTCFPPATPCDGGCDQGLVPIPLLANLSVEAQPPWLPGLEARYMAFAHDLMADAQRQDRPFFLYYASHHTHYPQFSGQSFAERSGRGPFGDSLMELDAAVGTLMTAIGDLGLLEETLVIFTADNGPETMRMSRGGCSGLLRCGKGTTYEGGVREPALAFWPGHIAPGVTHELASSLDLLPTLAALAGAPLPNVTLDGFDLSPLLLGTGKSPRQSLFFYPSYPDEVRGVFAVRTGKYKAHFFTQGSAHSDTTADPACHASSSLTAHEPPLLYDLSKDPGENYNLLGGVAGATPEVLQALKQLQLLKAQLDAAVTFGPSQVARGEDPALQICCHPGCTPRPACCHCPDPHA
notes: also called Fab HC-GS3-ARSA

biological target: T2, recombinant human TfR (r human TfR: Sino Biological Inc.), hTfR extracellular region with a histidine tag at … (human, UniProt P02786 89-760); test: BLI (Octet RED96), His-tagged TfR ECD on Ni-NTA sensor
T2 construct: Bought from Sino Biological; also called r human TfR-ECD (Histag); recombinant hTfR; not shown: histidine tag at the N-terminus

kon | Kd | koff | Binder
293000 M⁻¹ s⁻¹ |  |  | B1
526000 M⁻¹ s⁻¹ | 0.0689 nM | 3.63e-05 s⁻¹ | B2
721000 M⁻¹ s⁻¹ | < 0.001 nM | < 1e-07 s⁻¹ | B3
417000 M⁻¹ s⁻¹ | < 0.001 nM | < 1e-07 s⁻¹ | B4
670000 M⁻¹ s⁻¹ |  |  | B5

Biological target: T1, recombinant monkey TfR (r monkey TfR: …)
Test: as above

Kd | koff | kon | Binder
1.32 nM | 0.000292 s⁻¹ | 221000 M⁻¹ s⁻¹ | B1
2 nM | 0.000549 s⁻¹ | 274000 M⁻¹ s⁻¹ | B2
< 0.001 nM | < 1e-07 s⁻¹ | 388000 M⁻¹ s⁻¹ | B3
1.09 nM | 0.000281 s⁻¹ | 258000 M⁻¹ s⁻¹ | B5
